Laboratory results taken from patent US20120208867.

Biological target: T1, His-tagged HMGB1 (UniProt P09429)
T1 sequence: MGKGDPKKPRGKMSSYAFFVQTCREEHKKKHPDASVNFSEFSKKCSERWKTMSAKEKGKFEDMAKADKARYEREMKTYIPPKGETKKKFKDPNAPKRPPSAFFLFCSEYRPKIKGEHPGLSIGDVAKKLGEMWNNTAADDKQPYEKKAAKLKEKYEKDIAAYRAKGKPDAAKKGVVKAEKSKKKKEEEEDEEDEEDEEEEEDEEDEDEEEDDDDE
Test: SPR
Details: comparative pool; no signal increase in FIG. 1; unit M inferred

Sequence: GGGACGCUCACGUACGCUCANNNNNNNNNNNNNNNNNNNNNNNNNNNNNNNNNNNNNNNNUCAGUGCCUGGACGUGCAGU [40N random RNA pool]
- Kd: 1.04 µM
